Experimental data published in article PMC4273445 (eLife, 2014).

Legend:
Experiment in all cases: SPR
[1] = molecular target: fHbp V1.1 Ser288 to Ala (N. meningitidis)
[2] = molecular target: fHbp V2.21 Val (at V1 Leu171) to Ala (N. meningitidis)
[3] = molecular target: fHbp V1.1 Asp262 to Ala (N. meningitidis)
[4] = molecular target: fHbp V1.1 Glu109 to Ala (N. meningitidis)
[5] = molecular target: fHbp 1.P61 (N. meningitidis) (UniProt E6MV22)
[6] = molecular target: factor H binding protein (fHbp) V2.21 (N. meningitidis) (UniProt E6MV22)
[7] = molecular target: fHbp V2.21 Gln (at V1 Gln103) to Ala (N. meningitidis)
[8] = molecular target: fHbp V2.21 Asn (at V1 Gln180) to Ala (N. meningitidis)
[9] = molecular target: fHbp 2.P23 (N. meningitidis) (UniProt E6MV22)
[10] = molecular target: fHbp V2.21 Phe (at V1 Phe292) to Ala (N. meningitidis)
[11] = molecular target: fHbp 1.P5 (N. meningitidis) (UniProt E6MV22)
[12] = molecular target: fHbp V2.21 Asn (at V1 Asn108) to Ala (N. meningitidis)
[13] = molecular target: fHbp 1.P276 (N. meningitidis) (UniProt E6MV22)
[14] = molecular target: fHbp 1.P37 (N. meningitidis) (UniProt E6MV22)
[15] = molecular target: fHbp V2.21 Lys (at V1 His184) to Ala (N. meningitidis)
[16] = molecular target: fHbp V3.28 Asp (at V1 Gln103) to Ala (N. meningitidis)
[17] = molecular target: fHbp V2.21 Glu (at V1 Gly267) to Ala (N. meningitidis)
[18] = molecular target: fHbp V3.28 Ser (at V1 Ser104) to Ala (N. meningitidis)
[19] = molecular target: fHbp V3.28 Val (at V1 Ile196) to Ala (N. meningitidis)
[20] = molecular target: fHbp V1.1 His203 to Ala (N. meningitidis)
[21] = molecular target: fHbp V1.1 Ile154 to Ala (N. meningitidis)
[22] = molecular target: fHbp V1.1 Lys268 to Ala (N. meningitidis)
[23] = molecular target: fHbp V1.1 Asn108 to Ala (N. meningitidis)
[24] = molecular target: fHbp V3.28 Gly (at V1 Glu109) to Ala (N. meningitidis)
[25] = molecular target: fHbp 1.P292 (N. meningitidis) (UniProt E6MV22)
[26] = molecular target: fHbp V2.21 Arg (at V1 Arg145) to Ala (N. meningitidis)
[27] = molecular target: fHbp V1.1 Ser185 to Ala (N. meningitidis)
[28] = molecular target: fHbp V3.28 Gln (at V1 Arg145) to Ala (N. meningitidis)
[29] = molecular target: factor H binding protein (fHbp) V1.1 (N. meningitidis) (UniProt Q9JXV4)
[30] = molecular target: fHbp 1.P10 (N. meningitidis) (UniProt E6MV22)
[31] = molecular target: fHbp V2.21 Pro (at V1 Ser182) to Ala (N. meningitidis)
[32] = molecular target: fHbp V3.28 Leu (at V1 Arg195) to Ala (N. meningitidis)
[33] = molecular target: fHbp V3.28 Glu (at V1 Asp262) to Ala (N. meningitidis)
[34] = molecular target: fHbp V2.21 Ala (at V1 Pro265) to Pro (N. meningitidis)
[35] = molecular target: fHbp V3.28 Ile (at V1 Ile179) to Ala (N. meningitidis)
[36] = molecular target: fHbp V1.1 Asp150 to Ala (N. meningitidis)
[37] = molecular target: fHbp V3.28 Leu (at V1 Leu289) to Ala (N. meningitidis)
[38] = molecular target: fHbp 1.P15 (N. meningitidis) (UniProt E6MV22)
[39] = molecular target: fHbp 1.P4 (N. meningitidis) (UniProt E6MV22)
[40] = molecular target: fHbp V3.28 Leu (at V1 Ser274) to Ala (N. meningitidis)
[41] = molecular target: fHbp 1.P249 (N. meningitidis) (UniProt E6MV22)
[42] = molecular target: fHbp V3.28 His (at V1 Ser288) to Ala (N. meningitidis)
[43] = molecular target: fHbp V3.28 Pro (at V1 Ser182) to Ala (N. meningitidis)
[44] = molecular target: fHbp V2.21 Lys (at V1 Lys92) to Ala (N. meningitidis)
[45] = molecular target: fHbp V3.28 Thr (at V1 Ser286) to Ala (N. meningitidis)
[46] = molecular target: fHbp V1.1 Gln103 to Ala (N. meningitidis)
[47] = molecular target: fHbp V2.21 Val (at V1 Ile196) to Ala (N. meningitidis)
[48] = molecular target: fHbp V1.1 Glu157 to Ala (N. meningitidis)

CFH67, CCP domains 6 and 7 of complement factor H, sequence (P08603 321-443): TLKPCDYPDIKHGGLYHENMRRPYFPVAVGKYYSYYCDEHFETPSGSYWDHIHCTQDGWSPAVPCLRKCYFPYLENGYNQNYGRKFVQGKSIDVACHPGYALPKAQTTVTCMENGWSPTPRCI

CFHR3_(12), the first two (N-terminal) CCP domains of complement factor H-related 3 (from UniProt Q02985 19-330) (domain or fragment)
Kd [1]: 57.5 nM
Kd [2]: 9.81 nM
Kd [3]: 89.2 nM
Kd [4]: 27.9 nM
Kd [5]: 26.4 nM
Kd [6]: 3.73 nM
Kd [7]: 4.01 nM
Kd [8]: 5.87 nM
Kd [9]: 1.7 nM
Kd [10]: 19.4 nM
Kd [11]: 55.2 nM
Kd [12]: 4.26 nM
Kd [13]: 37.9 nM
Kd [14]: 7.52 nM
Kd [15]: 3.13 nM
Kd [16]: 2.81 nM
Kd [17]: 2.13 nM
Kd [18]: 7.19 nM
Kd [19]: 14.8 nM
Kd [20]: 32.6 nM
Kd [21]: 147 nM
Kd [22]: 43 nM
Kd [23]: 90.7 nM
Kd [24]: 1.96 nM
Kd [25]: 31.4 nM
Kd [26]: 2.88 nM
Kd [27]: 78.5 nM
Kd [28]: 0.434 nM
Kd [29]: 59.4 nM
Kd [30]: 119 nM
Kd [31]: 5.84 nM
Kd [32]: 1.76 nM
Kd [33]: 6.86 nM
Kd [34]: 4.12 nM
Kd [35]: 6.98 nM
Kd [36]: 118 nM
Kd [37]: 1.18 nM
Kd [38]: 56.4 nM
Kd [39]: 75 nM
Kd [40]: 20.3 nM
Kd [41]: 32.3 nM
Kd [42]: 9.65 nM
Kd [43]: 3.24 nM
Kd [44]: 3.06 nM
Kd [45]: 33.1 nM

CFH67, CCP domains 6 and 7 of complement factor H (from UniProt P08603 321-443) (domain or fragment)
Kd [1]: 2.87 nM
Kd [3]: 6.54 nM
Kd [4]: 2.93 nM
Kd [5]: 2.28 nM
Kd [6]: 1.87 nM
Kd [7]: 6.01 nM
Kd [8]: 6.21 nM
Kd [9]: 1.99 nM
Kd [11]: 4.8 nM
Kd [12]: 3.82 nM
Kd [13]: 8.9 nM
Kd [14]: 1.11 nM
Kd [15]: 3.15 nM
Kd [16]: 2.7 nM
Kd [46]: 7.03 nM
Kd [17]: 1.63 nM
Kd [18]: 8.99 nM
Kd [19]: 11.6 nM
Kd [20]: 1.8 nM
Kd [21]: 7.69 nM
Kd [22]: 3.53 nM
Kd [23]: 3.73 nM
Kd [24]: 2.82 nM
Kd [25]: 7.74 nM
Kd [47]: 40 nM
Kd [26]: 0.408 nM
Kd [27]: 3.09 nM
Kd [28]: 0.621 nM
Kd [30]: 15.2 nM
Kd [31]: 7.98 nM
Kd [33]: 6.4 nM
Kd [34]: 3.7 nM
Kd [35]: 9.91 nM
Kd [36]: 6.11 nM
Kd [37]: 1.29 nM
Kd [48]: 20.7 nM
Kd [38]: 11.7 nM
Kd [39]: 3.94 nM
Kd [40]: 18.5 nM
Kd [41]: 5.36 nM
Kd [42]: 7.66 nM
Kd [43]: 3.06 nM
Kd [44]: 2.73 nM
